Results taken from the supplement of paper PMC5949888.

What follows are sequences tested on Saccharomyces cerevisiae PS128 hsf1 delta, HSF1(1-493) fusion (assay: growth estimate (transactivation domain function in HSF1 fusion, heat-shock survival) (a.u. (slope of normalised read count over time)); higher = stronger growth at 37°C, i.e. more transactivation activity). Conditions: library: design library.
How it was run: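 Transactivation-domain oligos were designed and fused to a truncated yeast HSF1 (amino acids 1–493), then expressed in a yeast strain lacking hsf1. Replica plating onto –trp 5-FOA plates was followed by incubation at 30°C or 37°C for 0, 2, 4, 6 and 8 days. Inserts were amplified by PCR and sequenced on an Illumina MiSeq as six barcoded replicates from a single experiment. The growth estimate is the slope of a robust linear fit over time of read counts normalised to sample totals and to starting count.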

First: EFNDLLDLDFILRN
Second: EFNDLLDLDFILSA
The growth estimate of the first is higher: 5.09 for the first, -0.12 for the second.

Compared with EFNDLLDLDFILSG, EFNDLLDLDFILSK is lower in growth estimate: 1.41 for the first, 0.632 for the second.

First: EFNDLLDLDFILSN
Second: EFNDLLDLDFILSP
The growth estimate of the first is higher: 1.51 for the first, -0.228 for the second.

Going from EFNDLLDLDFILSR to EFNDLLDLDFIPSN, the growth estimate rises from 0.761 to 0.874.

Compared with EFNDLLDLDFIRSN, EFNDLLDLDFKLSN is lower in growth estimate: -0.0675 for the first, -0.099 for the second.

Going from EFNDLLDLDFPLSN to EFNDLLDLDFRLSN, the growth estimate falls from 1.64 to 0.0126.

Going from EFNDLLDLDKILSN to EFNDLLDLDPILSN, the growth estimate falls from -0.21 to -0.247.

Going from EFNDLLDLDRILSN to EFNDLLDLGFILSN, the growth estimate falls from 0.151 to -0.244.

Going from EFNDLLDLKFILSN to EFNDLLDLRFILSN, the growth estimate falls from -0.169 to under -0.25.

Compared with EFNDLLDPDFILSN, EFNDLLDRDFILSN is higher in growth estimate: -0.0736 for the first, -0.0427 for the second.

Compared with EFNDLLGLDFILSN, EFNDLLKLDFILSN is higher in growth estimate: under -0.25 for the first, -0.0935 for the second.

EFNDLLPLDFILSN and EFNDLLRLDFILSN cannot be ordered by growth estimate: under -0.25 for the first, under -0.253 for the second.

First: EFNDLPDLDFILSN
Second: EFNDLRDLDFILSN
The growth estimate of the first is higher: -0.195 for the first, -0.248 for the second.

Going from EFNDPLDLDFILSN to EFNDRLDLDFILSN, the growth estimate falls from -0.119 to -0.246.

Compared with EFNGLLDLDFILSN, EFNKLLDLDFILSN is lower in growth estimate: -0.173 for the first, under -0.25 for the second.

EFNPLLDLDFILSN and EFNRLLDLDFILSN cannot be ordered by growth estimate: under -0.25 for the first, under -0.25 for the second.

Going from EFPDLLDLDFILSN to EFRDLLDLDFILSN, the growth estimate rises from 0.17 to 0.421.

Going from EGDDEFSLWDSML to EGNDLLDLDFILSN, the growth estimate rises from 0.054 to 0.62.

First: EKDDEFSLWDSML
Second: EKLYSILWSDVY
The growth estimate of the first is lower: -0.193 for the first, -0.183 for the second.

Compared with EPDDEFSLWDSML, EPLYSILWSDVY is lower in growth estimate: 0.531 for the first, -0.136 for the second.

Compared with EPNDLLDLDFILSN, ERDDEFSLWDSML is higher in growth estimate: 0.229 for the first, 0.267 for the second.

First: ERLYSILWSDVY
Second: ERNDLLDLDFILSN
The growth estimate of the first is lower: under -0.25 for the first, -0.237 for the second.

Going from GADDIWEELLSEDL to GDDDEFSLWDSML, the growth estimate rises from 1.28 to 1.64.

Compared with GDLYSILWSDVY, GEFPGIELQELQELQALLQQ is higher in growth estimate: -0.212 for the first, -0.114 for the second.

Compared with GELSWIIELLEKDG, GFDLDMLGDFDLDMLG is higher in growth estimate: -0.152 for the first, 1.03 for the second.

Compared with GFDYDFLFGNDFA, GFNDLLDLDFILSN is lower in growth estimate: 8.74 for the first, -0.0099 for the second.

First: GFPDTQDDFLKWWRSEEAQ
Second: GLDESWDYIFETTE
The growth estimate of the first is lower: -0.128 for the first, 1.28 for the second.

First: GLSSHGFSVDTSALLDLFSP
Second: GMDDVYNYLFDD
The growth estimate of the first is lower: 0.18 for the first, 0.253 for the second.

First: GQNGEIAQLWDFN
Second: KADDIWEELLSEDL
The growth estimate of the first is lower: under -0.25 for the first, 0.514 for the second.

Going from KDDDEFSLWDSML to KDLYSILWSDVY, the growth estimate falls from 0.429 to -0.212.

Going from KEFPGIELQELQELQALLQQ to KELSWIIELLEKDG, the growth estimate rises from under -0.25 to -0.245.

Going from KFDLDMLGDFDLDMLG to KFDYDFLFGNDFA, the growth estimate rises from 0.164 to 1.06.

Compared with KFNDLLDLDFILSN, KFPDTQDDFLKWWRSEEAQ is lower in growth estimate: 0.326 for the first, -0.0955 for the second.

Compared with KLDESWDYIFETTE, KLSSHGFSVDTSALLDLFSP is lower in growth estimate: -0.0907 for the first, -0.241 for the second.

First: KMDDVYNYLFDD
Second: KQNGEIAQLWDFN
The growth estimate of the first is higher: -0.148 for the first, under -0.25 for the second.

Going from LADYDFLFGNDFA to LFAYDFLFGNDFA, the growth estimate falls from 2.67 to 0.948.

Compared with LFDADFLFGNDFA, LFDGDFLFGNDFA is higher in growth estimate: 0.761 for the first, 1.7 for the second.

Going from LFDKDFLFGNDFA to LFDYAFLFGNDFA, the growth estimate rises from -0.177 to 2.15.

First: LFDYDALFGNDFA
Second: LFDYDFGFGNDFA
The growth estimate of the first is lower: 0.627 for the first, 1.76 for the second.

Going from LFDYDFKFGNDFA to LFDYDFLAGNDFA, the growth estimate rises from -0.229 to 0.0054.

Going from LFDYDFLFANDFA to LFDYDFLFGADFA, the growth estimate falls from 2.92 to 1.91.

First: LFDYDFLFGGDFA
Second: LFDYDFLFGKDFA
The growth estimate of the first is higher: 5.98 for the first, 2.49 for the second.

Compared with LFDYDFLFGNAFA, LFDYDFLFGNDAA is higher in growth estimate: 0.211 for the first, 2.84 for the second.

Compared with LFDYDFLFGNDFA, LFDYDFLFGNDFG is lower in growth estimate: 6.94 for the first, 0.038 for the second.

First: LFDYDFLFGNDFK
Second: LFDYDFLFGNDFP
The growth estimate of the first is lower: 2.23 for the first, 15.5 for the second.

Compared with LFDYDFLFGNDFR, LFDYDFLFGNDGA is lower in growth estimate: 3.17 for the first, 0.693 for the second.

First: LFDYDFLFGNDKA
Second: LFDYDFLFGNDPA
The growth estimate of the first is lower: 0.271 for the first, 0.915 for the second.

Compared with LFDYDFLFGNDRA, LFDYDFLFGNGFA is higher in growth estimate: 0.389 for the first, 1.45 for the second.

First: LFDYDFLFGNKFA
Second: LFDYDFLFGNPFA
The growth estimate of the first is lower: -0.246 for the first, -0.0703 for the second.

First: LFDYDFLFGNRFA
Second: LFDYDFLFGPDFA
The growth estimate of the first is lower: -0.205 for the first, 10.1 for the second.

Going from LFDYDFLFGRDFA to LFDYDFLFKNDFA, the growth estimate falls from 3.41 to 2.06.

First: LFDYDFLFPNDFA
Second: LFDYDFLKGNDFA
The growth estimate of the first is higher: 4.58 for the first, -0.139 for the second.

Compared with LFDYDFLPGNDFA, LFDYDFLRGNDFA is higher in growth estimate: -0.232 for the first, -0.143 for the second.

First: LFDYDFPFGNDFA
Second: LFDYDFRFGNDFA
The growth estimate of the first is higher: 0.577 for the first, -0.0564 for the second.

First: LFDYDGLFGNDFA
Second: LFDYDKLFGNDFA
The growth estimate of the first is higher: 0.114 for the first, -0.159 for the second.

First: LFDYDPLFGNDFA
Second: LFDYDRLFGNDFA
The growth estimate of the first is higher: 0.326 for the first, -0.0061 for the second.

Compared with LFDYGFLFGNDFA, LFDYKFLFGNDFA is lower in growth estimate: 1.29 for the first, 0.0164 for the second.

Going from LFDYPFLFGNDFA to LFDYRFLFGNDFA, the growth estimate falls from 1.53 to -0.216.

Going from LFGYDFLFGNDFA to LFPYDFLFGNDFA, the growth estimate falls from 1.68 to 1.32.

First: LFRYDFLFGNDFA
Second: LGDYDFLFGNDFA
The growth estimate of the first is lower: -0.0535 for the first, 2.6 for the second.

Compared with LKDYDFLFGNDFA, LPDYDFLFGNDFA is higher in growth estimate: -0.0701 for the first, 2.12 for the second.

Compared with LRDYDFLFGNDFA, MASSHGFSVDTSALLDLFSP is higher in growth estimate: -0.135 for the first, 0.0397 for the second.

First: MGSSHGFSVDTSALLDLFSP
Second: MKSSHGFSVDTSALLDLFSP
The growth estimate of the first is higher: 0.215 for the first, -0.215 for the second.

First: MLASHGFSVDTSALLDLFSP
Second: MLGSHGFSVDTSALLDLFSP
The growth estimate of the first is lower: -0.0319 for the first, 0.0043 for the second.

Compared with MLKSHGFSVDTSALLDLFSP, MLPSHGFSVDTSALLDLFSP is higher in growth estimate: -0.17 for the first, -0.0639 for the second.

First: MLSAHGFSVDTSALLDLFSP
Second: MLSGHGFSVDTSALLDLFSP
The growth estimate of the first is lower: -0.231 for the first, -0.0767 for the second.

Going from MLSKHGFSVDTSALLDLFSP to MLSPHGFSVDTSALLDLFSP, the growth estimate rises from -0.229 to 0.158.

Going from MLSSAGFSVDTSALLDLFSP to MLSSHAFSVDTSALLDLFSP, the growth estimate falls from -0.0464 to -0.157.

Compared with MLSSHGASVDTSALLDLFSP, MLSSHGFAVDTSALLDLFSP is lower in growth estimate: -0.0827 for the first, -0.142 for the second.

First: MLSSHGFGVDTSALLDLFSP
Second: MLSSHGFKVDTSALLDLFSP
The growth estimate of the first is higher: -0.0322 for the first, under -0.25 for the second.

Compared with MLSSHGFPVDTSALLDLFSP, MLSSHGFRVDTSALLDLFSP is lower in growth estimate: -0.119 for the first, -0.241 for the second.

Going from MLSSHGFSADTSALLDLFSP to MLSSHGFSGDTSALLDLFSP, the growth estimate falls from -0.026 to -0.115.

First: MLSSHGFSKDTSALLDLFSP
Second: MLSSHGFSPDTSALLDLFSP
The growth estimate of the first is lower: -0.239 for the first, 0.374 for the second.

First: MLSSHGFSRDTSALLDLFSP
Second: MLSSHGFSVATSALLDLFSP
The growth estimate of the first is lower: under -0.25 for the first, -0.234 for the second.

Going from MLSSHGFSVDASALLDLFSP to MLSSHGFSVDGSALLDLFSP, the growth estimate falls from 0.0915 to -0.0946.

First: MLSSHGFSVDKSALLDLFSP
Second: MLSSHGFSVDPSALLDLFSP
The growth estimate of the first is lower: -0.249 for the first, -0.0885 for the second.
